Source: US20060088847A1 (TRUSTEES OF COLUMBIA UNIVERSITY IN THE CITY OF NEW YORK, published 2006)

Biological target: in vitro translated 35S-labeled ARF-BP1 (1015-4374) (human, UniProt Q7Z6Z7 1015-4374, 35S-labeled (in vitro translation))
Test: GST pull-down with 35S-labeled in vitro translated protein

binding result: no binding
B1: GST-C-ARF, the C terminus of ARF (65-132) (other, UniProt Q8N726 65-132, looked up)
chain: GHDDGQRPSGGAAAAPRRGAQLRRPRHSHPTRARRCPGGLPGHAGGAAPGRGAAGRARCLGPSARGPG
notes: range 65-132; also called CARF-(65-132); not shown: glutathione S-transferase (GST) tag of the pGEX vector
